The target of data set [1] is T1, PaCrtI (Pantoea ananatis, UniProt P21685).
T1 construct: gene crtI; full-length, yeast codon-optimized synthetic gene, expressed in Saccharomyces cerevisiae under TDH3p; V5 tag (CrtI-V5 in western blot)
In words: in vivo lycopene flux vs intracellular phytoene in yeast strains, Michaelis-Menten fit. The conditions noted are these: read-out: K1/2cell; in living S. cerevisiae, exponential growth, 28 °C, medium pH 5.0; TDH3p expression; total intracellular substrate concentration; lower limit only, no saturation. It is filed as cell-based.

Data set [2] concerns CC(C)=CCC/C(C)=C/CC/C(C)=C/CC/C(C)=C/COP(=O)(O)OP(=O)(O)O. In words: cells, lysate or membranes. The conditions noted are these: in living S. cerevisiae, exponential growth, 28 °C, medium pH 5.0, PGI1p expression, total intracellular substrate concentration, partial saturation.
Substrate in data set [3]: CC(C)=CCC/C(C)=C/CC/C(C)=C/CC/C(C)=C/C=C\C=C(/C)CC/C=C(\C)CC/C=C(\C)CCC=C(C)C
In words: in vivo lycopene flux vs intracellular phytoene in yeast strains, Michaelis-Menten fit. It is filed as cell-based, Blakeslea trispora. The conditions noted are these: in living S. cerevisiae, exponential growth, 28 °C, medium pH 5.0, PGI1p expression, total intracellular substrate concentration, enzyme level slightly higher in low-phytoene strains.

Substrate in data set [4]: CC(C)=CCC/C(C)=C/CC/C(C)=C/CC/C(C)=C/C=C\C=C(/C)CC/C=C(\C)CC/C=C(\C)CCC=C(C)C
The data set is described as above. The conditions noted are these: in living S. cerevisiae, exponential growth, 28 °C, medium pH 5.0, PGK1p expression, total intracellular substrate concentration. Format: cell-based, Phaffia rhodozyma.

Where only a bound is given, the exact number is not on record here.

T1 sequence (P21685 whole entry): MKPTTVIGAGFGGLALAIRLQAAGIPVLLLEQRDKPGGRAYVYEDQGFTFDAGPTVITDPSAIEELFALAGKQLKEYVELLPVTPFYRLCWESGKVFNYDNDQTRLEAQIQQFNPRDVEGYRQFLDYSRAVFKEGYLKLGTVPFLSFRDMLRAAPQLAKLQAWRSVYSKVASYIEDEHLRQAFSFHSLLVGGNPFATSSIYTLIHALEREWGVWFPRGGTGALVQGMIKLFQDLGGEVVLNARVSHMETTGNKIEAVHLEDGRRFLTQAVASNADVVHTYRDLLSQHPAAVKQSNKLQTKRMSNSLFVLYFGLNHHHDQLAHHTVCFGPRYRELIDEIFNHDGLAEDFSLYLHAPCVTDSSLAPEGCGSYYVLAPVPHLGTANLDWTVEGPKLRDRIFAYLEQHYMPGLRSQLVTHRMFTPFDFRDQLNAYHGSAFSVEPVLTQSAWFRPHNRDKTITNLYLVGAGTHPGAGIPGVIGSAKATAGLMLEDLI

As for `CC(C)=CCC/C(C)=C/CC/C(C)=C/CC/C(C)=C/C=C\C=C(/C)CC/C=C(\C)CC/C=C(\C)CCC=C(C)C` [phytoene], the Km in data set [1] was > 560 µM.
For the molecule PaCrtB (Pantoea ananatis), in data set [2], the K0.5 is 19 ± 3 µM and the catalytic constant (kcat) – broadly, the maximal rate divided by the concentration of active sites – came to 6 ± 1 s⁻¹.

B1: BtCrtI (Blakeslea trispora) (protein)
chain: MSDQKKHIVVIGAGIGGTATAARLAREGFRVTVVEKNDFSGGRCSFIHHDGHRFDQGPSLYLMPKLFEDAFADLDERIGDHLDLLRCDNNYKVHFDDGDAVQLSSDLTKMKGELDRIEGPLGFGRFLDFMKETHVHYEQGTFIAIKRNFETIWDLIRLQYVPEIFRLHLFGKIYDRASKYFQTKKMRMAFTFQTMYMGMSPYDAPAVYSLLQYTEFAEGIWYPRGGFNMVVQKLESIASKKYGAEFRYQSPVAKINTVDKDKRVTGVTLESGEVIEADAVVCNADLVYAYHHLLPPCNWTKKTLASKKLTSSSISFYWSMSTKVPQLDVHNIFLAEAYKESFDEIFNDFGLPSEASFYVNVPSRIDESAAPPNKDSIIVLVPIGHMKSKTGNSAEENYPELVNRARKMVLEVIERRLGVNNFANLIEHEEVNDPSVWQSKFNLWRGSILGLSHDVFQVLWFRPSTKDSTNRYDNLFFVGASTHPGTGVPIVLAGSKLTSDQVCKSFGQNPLPRKLQDSQKKYAPEQTSKTESHWIYYCLACYFVTFLFFYFFPRDDTTTPASFINQLLPNVFQVQNSNDIRI
notes: full-length, yeast codon-optimized synthetic gene, expressed in Saccharomyces cerevisiae under PGI1p; V5 tag (CrtI-V5 in western blot)
Regarding B1, the K0.5 in data set [3] turned out to be 41 ± 12 µM.

B2: XdCrtI (Phaffia rhodozyma) (protein)
chain: MGKEKDQDKPTAIIVGCGIGGIATAARLAKEGFQVTVFEKNDYSGGRCSLIERDGYRFDQGPSLLLLPDLFKQTFEDLGEKMEDWVDLIKCEPNYVCHFHDEETFTLSTDMALLKREVERFEGKDGFDRFLSFIQEAHRHYELAVVHVLQKNFPGFAAFLRLQFIGQILALHPFESIWTRVCRYFKTDRLRRVFSFAVMYMGQSPYSAPGTYSLLQYTELTEGIWYPRGGFWQVPNTLLQIVKRNNPSAKFNFNAPVSQVLLSPAKDRATGVRLESGEEHHADVVIVNADLVYASEHLIPDDARNKIGQLGEVKRSWWADLVGGKKLKGSCSSLSFYWSMDRIVDGLGGHNIFLAEDFKGSFDTIFEELGLPADPSFYVNVPSRIDPSAAPEGKDAIVILVPCGHIDASNPQDYNKLVARARKFVIQTLSAKLGLPDFEKMIVAEKVHDAPSWEKEFNLKDGSILGLAHNFMQVLGFRPSTRHPKYDKLFFVGASTHPGTGVPIVLAGAKLTANQVLESFDRSPAPDPNMSLSVPYGKPLKSNGTGIDSQVQLKFMDLERWVYLLVLLIGAVIARSVGVLAF
notes: full-length, gene amplified from a plasmid, expressed in Saccharomyces cerevisiae under PGK1p; V5 tag (CrtI-V5 in western blot)
With B2, in data set [4], the K0.5 is on record as 380 ± 49 µM and the kcat was determined as 0.030 ± 0.006 s⁻¹.

These data come from article PMC11535393, “Combining systems and synthetic biology for in vivo enzymology” (The EMBO Journal, 2024).
